B3: S261V (receptor)
extracellular domains 1, 2 and 3: QPSVSPGEPSPPSIHPGKSDLIVRVGDEIRLLCTDPGFVKWTFEILDETNENKQNEWITEKAEATNTGKYTCTNKHGLSNSIYVFVRDPAKLFLVDRSLYGKEDNDTLVRCPLTDPEVTNYSLKGCQGKPLPKDLRFIPDPKAGIMIKSVKRAYHRLCLHCSVDQEGKSVLSEKFILKVRPAFKAVPVVSVSKASYLLREGEEFTVTCTIKDVSSSVYSTWKRENSQTKLQEKYNVWHHGDFNYERQATLTISSARVNDSGVFMCYANNTFGSANVTTTLEVVD
notes: not in the list MOLECULES; also called human CD117 D1-2-3 variant S261V

Columns and labels:
variants of CD117 = test: Blocking of SCF-induced CD117 phosphorylation (Tyr719 ELISA), TF-1 cells with CD117 variants; type: cell-based, human; conditions: 0.5 ug/mL antibody or 500 nM avapritinib; 100 ng/ml SCF 5 minutes
Procedure: (§1) SCF-dependent phosphorylation is another function of CD117. SCF-dependent phosphorylation was measured using TF-1 cells expressing CD117 (as shown in previous experiments). TF-1 cells were seeded at a concentration of 1 million cells/ml in 1 ml of Medium (RPMI1640 supplemented with GlutaMAX+10% heat inactivated FBS) in a 6-well plate. Cells were treated with 0.5 ug/mL antibody or 500 nM avapratinib. Cells were then treated with 100 ng/ml recombinant human SCF (1 mg/ml PeproGMP® Recombinant Human SCF) for 5 minutes, before cell collection. Cells were washed with ice-cold PBS, before resuspending cells in 250 μL Lysis Buffer (Lysis buffer from Signaling containing Protease Inhibitor and Phosphatase Inhibitor). Cells were flash frozen in liquid nitrogen and thawed at 37° C. twice, before freezing them at −80° C. until further usage. Undiluted samples were thawed and processed according to the manufacturers protocol for the PathScan® Phospho-c-Kit (Tyr719) Sandwich ELISA Kit (Cell Signaling). Absorbance (OD_450 nm) was assessed using the Envision (Perkin Elmer).
(§2) TF-1 cells (wild type, and variants E73K, E73Y, D121K, S123F and S123K of CD117) were seeded at a concentration of 1 million cells/mL in 2 ml of Medium (RPMI1640 supplemented with GlutaMAX+10% heat inactivated FBS) in a 6-well plate. Cells were pre-treated with 0.5 μg/ml of antibodies Refmab #1-Ernie or Refmab #1-Bert for 30 minutes, before adding 100 ng/ml recombinant human SCF (1 mg/mL PeproGMP® Recombinant Human SCF) for 5 minutes. Cells were collected, washed once with ice-cold PBS and resuspended in 500 μL Lysis Buffer (Lysis buffer from Signaling containing Protease Inhibitor and Phosphatase Inhibitor). Cells were then flash frozen in liquid nitrogen and thawed at 37° C. twice, before freezing them at −80° C. until further usage. Undiluted samples were thawed and processed according to the manufacturers protocol for the PathScan Phospho-c-Kit (Tyr719) Sandwich ELISA Kit (Cell Signaling) or the Human c-Kit (CD117) ELISA Kit (Abcam). Absorbance (OD_450 nm) was assessed using the Envision (Perkin Elmer).

wild type TF-1 cells = test: Inhibition of SCF-dependent proliferation, wild type TF-1 cells; type: cell-based, human; conditions: 100 ng/ml SCF; increasing concentrations; 3 days
Procedure: (§3) SCF-dependent proliferation is another function of CD117. SCF-dependent proliferation was measured as follows: TF-1 cells were seeded at a cell concentration of 150 000 cells/ml in sterile, white cell culture treated plates in RPMI Media+10% FCS. Cells were treated with 100 ng/ml of SCF and a titration of various CD117 antibodies or an isotype control antibody at different concentrations. After 3 days of incubation a CellTiter-Glo 2.0 assay (Promega) was performed and luminescence was read in a luminometer (e.g. Envision or Phera Star plate readers).
(§4) Next, proliferation of the variants was tested with increasing concentrations of RefMab #1 at a constant concentration of SCF (100 ng/ml). TF-1 cells were seeded at a cell concentration of 150 000 cells/ml in sterile, white cell culture treated plates with transparent bottom in RPMI+GlutaMax+10% FCS and a fix concentration of 100 ng/ml SCF in the media, Cells were treated with different concentrations of RefMab #1. After 3 days of incubation a CellTiter-Glo 2,0 assay (Promega) was performed, luminescence was read in a luminometer (Envision plate reader).

CD117 = test: Blocking of SCF-induced CD117 phosphorylation (Tyr719 ELISA), wild type TF-1 cells; type: cell-based, human; conditions: 0.5 ug/mL antibody or 500 nM avapritinib; 100 ng/ml SCF 5 minutes
Procedure: as §1, §2

[1] = system: TF-1 cells with knock-ins of CD117 variants; test: Inhibition of SCF-dependent proliferation, TF-1 cells with CD117 variant knock-in; type: cell-based, human; conditions: 100 ng/ml SCF; increasing concentrations; 3 days; E73K; all variants tested
Procedure: as §3
CD117 wild-type TF-1 cells were compared to TF1 cells with a E73K knock in. […] Both KI1 and KI2 were obtained upon sorting the edited TF1 cells using the SONY MA900, removing any wild-type and knock out cells from the final subsets, thus yielding high purity of knock in.
as §4

Y259G = molecular target: T1, Y259G (limits assumed); test: BLI (Octet) as in Example 7, CD117 variant as analyte; affinity class as drawn, classes defined by the key on the sheet
T1 construct: not in the list MOLECULES; also called human CD117 D1-2-3 variant Y259G
T1 extracellular domains 1, 2 and 3: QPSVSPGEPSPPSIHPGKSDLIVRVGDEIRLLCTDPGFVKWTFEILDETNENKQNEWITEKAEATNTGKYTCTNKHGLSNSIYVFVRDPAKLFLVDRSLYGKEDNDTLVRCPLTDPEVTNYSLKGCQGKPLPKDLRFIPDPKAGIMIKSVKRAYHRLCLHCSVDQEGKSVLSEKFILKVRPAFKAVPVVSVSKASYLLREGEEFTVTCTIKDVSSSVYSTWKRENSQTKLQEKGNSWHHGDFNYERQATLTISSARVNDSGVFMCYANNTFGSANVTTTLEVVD
Procedure: (§5) As an analyte, human CD117 wt and variants, containing only domains 1, 2 and 3 (CD117 D1-2-3), was titrated at 500 nM, 50 nM and 5 nM. […] Reference subtraction was performed against buffer only wells. AHC tips were regenerated using 10 mM Gly-HCl pH 1.7. Data were analyzed using the Octet Data Analysis software HT 12.0. Data were fitted (when possible) to a 1:1 binding model. Kinetic rates ka and ka were globally fitted. […] For this qualitative analysis, the binding level of the top analyte concentration at end of the association step was used.

[2] = molecular target: human CD117 D1-2-3 variant Y259P (human, UniProt P10721 26-311, limits assumed); test: as above
Procedure: as §5

[3] = molecular target: human CD117 D1-2-3 variant Y259A (human, UniProt P10721 26-311, limits assumed); test: as above
Procedure: as §5

[4] = molecular target: human CD117 D1-2-3 variant Y259E (human, UniProt P10721 26-311, limits assumed); test: as above
Procedure: as §5

S261V = molecular target: B3; test: as above
Procedure: as §5

[5] = molecular target: T2, human CD117 D1-2-3 variant S261E (human, UniProt P10721 26-311, limits assumed); test: BLI (Octet) as in Example 7, CD117 variant as analyte; affinity class as drawn
T2 construct: Recombinant purified

[6] = molecular target: T3, human CD117 D1-2-3 variant S261Q (human, UniProt P10721 26-311, limits assumed); test: as above
T3 construct: Recombinant purified

human wild-type CD117 [7] = molecular target: T4, human wild-type CD117 (human, UniProt P10721 26-976); test: flow cytometry, HEK-293T with wt CD117 vs vector alone, IgG at 0.063 µg/mL
T4 construct: also called wt CD117; KIT
Procedure: Binding of the antibodies to the transfected cells and the optimal assay conditions were evaluated in 384-well format. Detection of cellular expression was measured via high-throughput flow cytometry. Serial dilutions of each antibody were tested for immunoreactivity against cells expressing CD117 or vector alone. The optimal screening concentration for each antibody was determined based on the raw signal values and signal-to-background calculations. Each point represents the mean of four replicates.

CD117 D1-2-3 wt = molecular target: T5, CD117 D1-2-3 wt (human, UniProt P10721 26-311, limits assumed); test: BLI (Octet) as in Example 7, CD117 as analyte; affinity class as drawn, classes defined by the key on the sheet
T5 construct: also called human CD117 wt containing only domains 1, 2 and 3; wild type CD117 (recombinant purified)

human wild-type CD117 [8] = molecular target: T4, human wild-type CD117; test: flow cytometry, HEK-293T with wt CD117 vs vector alone, Fab at 0.50 µg/mL
Refmab #3 = test: Octet: binding of CD117 variants to Refmab #3; conditions: qualitative Octet analysis
Procedure: A more sophisticated analysis of binding to the elected variants was performed with antibody Refmab #1. Binding of Refmab #1 to wt and variants (analyte) was measured in an Octet system RED96e or R8 at 25° C. with shaking at 1,000 rpm using 1× kinetic buffer (Sartorius, PN: 18-1105). First, the elected variants were screened for their ability to bind Refmab #1 using three different concentrations of analytes. Antibody Refmab #1 was captured by Anti-Human Fc capture biosensor (AHC) (Sartorius, PN: 18-5060) for 300 s at 0.5 to 1 μg/mL. As an analyte, human CD117 wt and variants, containing only domains 1, 2 and 3 (CD117 D1-2-3), was titrated at 500 nM, 50 nM and 5 nM. Association and dissociation of the analyte to Refmab #1 was monitored for 300 s and 900 s, respectively. Reference subtraction was performed against buffer only wells. AHC tips were regenerated using 10 mM Gly-HCl pH 1.7. Data were analyzed using the Octet Data Analysis software HT 12.0. Data were fitted (when possible) to a 1:1 binding model. Kinetic rates ka and […] globally fitted. Binding level of the elected variants were compared to wild type and are shown as percent in FIG. 7. For this qualitative analysis, the binding level of the top analyte concentration at end of the association step was used.
A similar experiment to that in Example 7 was performed, but utilizing Refmab's #2 and #3.

Biotinylated Avitag-hSCF = molecular target: T6, Biotinylated Avitag-hSCF (human, UniProt P21583 26-190, limits assumed, biotinylated Avitag); test: BLI (Octet), steady state: biotinylated SCF on streptavidin biosensor, CD117 D1-2-3 variant as analyte
T6 construct: Bought reagent; also called hSCF (Acros Biosystems SCF-H82E1)
T6 sequence (P21583 26-190 limits assumed): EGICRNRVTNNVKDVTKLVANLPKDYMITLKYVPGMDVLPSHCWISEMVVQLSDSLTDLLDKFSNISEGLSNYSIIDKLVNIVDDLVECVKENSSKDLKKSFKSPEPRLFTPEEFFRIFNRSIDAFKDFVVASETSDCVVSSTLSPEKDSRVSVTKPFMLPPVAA
Procedure: Domains 4 and 5 were used as a negative, non-binding control.
Association was monitored for 300 s and dissociation for 600 s. […] Reference subtraction was performed against buffer only wells. Biosensors were not regenerated and a new set of SA biosensors was used for each analyte. Data were analyzed using the Octet Data Analysis software HT 12.0. Steady state data analysis was performed due to the fast on/off nature of the interaction.

Question: What does the source list for `Cn1cc(-c2cc3c(N4CCN(c5ncc([C@@](C)(N)c6ccc(F)cc6)cn5)CC4)ncnn3c2)cn1` [avapritinib, reference compound]?
Answer: blocking of SCF-induced phosphorylation, E73K variant (variants of CD117): still blocks; effect on SCF-dependent proliferation of wild type TF-1 cells (wild type TF-1 cells): no proliferation; blocking of SCF-induced phosphorylation, wild type cells (CD117): blocked; effect on SCF-dependent proliferation of TF-1 cells with CD117 variants [1]: no proliferation

B1: Refmab #3 (antibody, V domains shown)
VH: EVQLVQSGAEVKKPGESLKISCKGSGYSFTNYWIGWVRQMPGKGLEWMAIINPRDSDTRYRPSFQGQVTISADKSISTAYLQWSSLKASDTAMYYCARHGRGYEGYEGAFDIWGQGTLVTVSS
VL: DIQMTQSPSSLSASVGDRVTITCRSSQGIRSDLGWYQQKPGKAPKLLIYDASNLETGVPSRFSGSGSGTDFTLTISSLQPEDFATYYCQQANGFPLTFGGGTKVEIK
Question: B1 was tested. Which Kd (Y259G) did it give?
Answer: > 50 nM

Question: And the Kd [2]?
Answer: > 50 nM

Question: And the Kd [3]?
Answer: > 50 nM

Question: And the Kd [4]?
Answer: < 5 nM

Question: What about the Kd (S261V) of the same molecule?
Answer: > 50 nM

Question: Does B1 bind [5]?
Answer: no binding (tested: not shown on the sheet)

Question: Does B1 bind [6]?
Answer: no binding (tested: not shown on the sheet)

Question: What about the “Signal:Background” value (human wild-type CD117 [7]) of the same molecule?
Answer: 8 ratio to background

Question: And the Kd (CD117 D1-2-3 wt)?
Answer: < 5 nM

B2: Refmab #3 Fab fragment (Fab, V domains shown)
VH: EVQLVQSGAEVKKPGESLKISCKGSGYSFTNYWIGWVRQMPGKGLEWMAIINPRDSDTRYRPSFQGQVTISADKSISTAYLQWSSLKASDTAMYYCARHGRGYEGYEGAFDIWGQGTLVTVSS
VL: DIQMTQSPSSLSASVGDRVTITCRSSQGIRSDLGWYQQKPGKAPKLLIYDASNLETGVPSRFSGSGSGTDFTLTISSLQPEDFATYYCQQANGFPLTFGGGTKVEIK
Question: B2 was tested. Which “Signal:Background” value (human wild-type CD117 [8]) did it give?
Answer: 6 ratio to background

Question: How did the “binding to Refmab #3 compared to wild type CD117” value (Refmab #3) turn out when B3 was run?
Answer: strong decrease in binding

Question: Does B3 bind (Biotinylated Avitag-hSCF)?
Answer: no binding (tested: 1000 nM (not on the sheet))
